Measured values as given in the supplement of paper PMC10567573.

B1: ZNF263 (parent)
chain: HLTRHQRTHTGEKPYKCTLCGENF

Variants of: B1
Assay: protein stability index of a GFP-peptide fusion (GPS, HEK-293T) (PSI 1-6); higher = more stable
Settings: c terminus: a fixed tail appended
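Also: lentivirally expressed fusions sorted by FACS into six bins by GFP to DsRed ratio, PSI derived from sequencing read proportions per bin multiplied by bin number.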

Going from H9L to H9V, the protein stability index rises from 2.51 to 2.65.

Going from H9K to H9R, the protein stability index falls from 3.58 to 3.11.

First: H9A
Second: H9P
The protein stability index of the first is lower: 2.67 for the first, 2.77 for the second.

First: H9E
Second: H9F
The protein stability index of the first is higher: 3.41 for the first, 2.22 for the second.

Going from H9W to H9M, the protein stability index rises from 1.89 to 2.5.

First: H9S
Second: H9N
The protein stability index of the first is lower: 2.71 for the first, 2.79 for the second.

Going from H9Q to H9I, the protein stability index falls from 2.67 to 2.48.

First: H9Y
Second: H9C
The protein stability index of the first is lower: 2.19 for the first, 2.74 for the second.

H9G and H9T are the same in protein stability index: 3.04 for the first, 3.04 for the second.

Going from H9D to Q6P, the protein stability index falls from 2.83 to 2.69.

Compared with Q6W, Q6E is higher in protein stability index: 2.04 for the first, 2.71 for the second.

Compared with Q6G, Q6R is higher in protein stability index: 2.85 for the first, 3.19 for the second.

Compared with Q6N, Q6M is higher in protein stability index: 2.46 for the first, 2.6 for the second.

Going from Q6V to Q6H, the protein stability index rises from 2.29 to 3.28.

Going from Q6S to Q6I, the protein stability index falls from 3.68 to 2.22.

Going from Q6A to Q6T, the protein stability index falls from 2.93 to 2.75.

Going from Q6Y to Q6K, the protein stability index rises from 2.7 to 2.94.

Compared with Q6L, Q6F is lower in protein stability index: 2.61 for the first, 2.08 for the second.

Compared with Q6D, Q6C is higher in protein stability index: 2.84 for the first, 3.36 for the second.

Going from R4E to R4C, the protein stability index falls from 3.7 to 3.67.

Going from R4L to R4W, the protein stability index falls from 3.22 to 2.5.

Compared with R4S, R4I is lower in protein stability index: 3.37 for the first, 2.61 for the second.

First: R4N
Second: R4T
The protein stability index of the first is lower: 3.09 for the first, 3.1 for the second.

First: R4K
Second: R4Y
The protein stability index of the first is higher: 3.47 for the first, 2.76 for the second.

First: R4M
Second: R4H
The protein stability index of the first is lower: 2.83 for the first, 3.53 for the second.

Compared with R4G, R4Q is higher in protein stability index: 2.38 for the first, 3.32 for the second.

Going from R4V to R4P, the protein stability index rises from 3.35 to 3.76.

First: R4A
Second: R4D
The protein stability index of the first is lower: 3.43 for the first, 4.07 for the second.

Compared with R4F, T10H is higher in protein stability index: 2.38 for the first, 3.19 for the second.

First: T10V
Second: T10N
The protein stability index of the first is higher: 2.45 for the first, 2.44 for the second.

First: T10P
Second: T10A
The protein stability index of the first is lower: 2.45 for the first, 3.14 for the second.

Compared with T10F, T10R is higher in protein stability index: 2.73 for the first, 3.36 for the second.

Compared with T10G, T10C is higher in protein stability index: 2.92 for the first, 2.96 for the second.

First: T10E
Second: T10W
The protein stability index of the first is higher: 3.42 for the first, 2.82 for the second.

Going from T10S to T10Q, the protein stability index rises from 3.12 to 3.44.

Compared with T10M, T10D is higher in protein stability index: 2.48 for the first, 2.78 for the second.

Going from T10L to T10I, the protein stability index rises from 1.98 to 3.13.

First: T10K
Second: R7Y
The protein stability index of the first is higher: 3.12 for the first, 2.9 for the second.

Going from R7D to R7M, the protein stability index falls from 3.2 to 2.94.

Compared with R7N, R7A is lower in protein stability index: 3.51 for the first, 2.94 for the second.

Compared with R7I, R7K is higher in protein stability index: 2.4 for the first, 2.97 for the second.

Compared with R7H, R7T is lower in protein stability index: 4.64 for the first, 3.6 for the second.

Compared with R7Q, R7S is higher in protein stability index: 2.96 for the first, 3.36 for the second.

First: R7F
Second: R7E
The protein stability index of the first is lower: 2.49 for the first, 3.98 for the second.

Going from R7V to R7W, the protein stability index falls from 2.96 to 2.12.

Compared with R7C, R7G is lower in protein stability index: 4.78 for the first, 3.39 for the second.

Compared with R7L, R7P is lower in protein stability index: 2.97 for the first, 2.63 for the second.

First: L2E
Second: L2Y
The protein stability index of the first is higher: 3.31 for the first, 3.3 for the second.

First: L2M
Second: L2R
The protein stability index of the first is higher: 3.04 for the first, 2.79 for the second.

Going from L2V to L2S, the protein stability index rises from 3.39 to 3.8.

Compared with L2H, L2I is lower in protein stability index: 3.53 for the first, 2.59 for the second.

Compared with L2N, L2T is lower in protein stability index: 3.73 for the first, 3.14 for the second.

Going from L2P to L2Q, the protein stability index falls from 3.57 to 3.22.

Compared with L2F, L2K is higher in protein stability index: 2.9 for the first, 3.38 for the second.

Compared with L2W, L2G is higher in protein stability index: 2.71 for the first, 3.51 for the second.

Compared with T3S, T3H is higher in protein stability index: 2.83 for the first, 3.4 for the second.

Going from T3N to T3F, the protein stability index falls from 3.6 to 2.3.

Going from T3P to T3I, the protein stability index falls from 2.48 to 2.33.

First: T3V
Second: T3Q
The protein stability index of the first is lower: 2.93 for the first, 3.28 for the second.

First: T3G
Second: T3C
The protein stability index of the first is lower: 2.3 for the first, 3.47 for the second.

First: T3A
Second: T3D
The protein stability index of the first is lower: 2.88 for the first, 3.77 for the second.

Going from T3K to T3L, the protein stability index falls from 3.1 to 2.1.

Compared with T3R, T3W is lower in protein stability index: 3.77 for the first, 2.31 for the second.

Compared with T3Y, T3M is higher in protein stability index: 2.36 for the first, 2.63 for the second.

First: T3E
Second: T8F
The protein stability index of the first is higher: 3.29 for the first, 2.46 for the second.

Going from T8P to T8C, the protein stability index rises from 2.54 to 2.99.

Compared with T8M, T8S is higher in protein stability index: 2.5 for the first, 3.4 for the second.

Going from T8W to T8V, the protein stability index rises from 2.29 to 2.65.

Compared with T8R, T8K is lower in protein stability index: 3.49 for the first, 2.38 for the second.

First: T8Y
Second: T8Q
The protein stability index of the first is lower: 2.25 for the first, 3.41 for the second.

First: T8L
Second: T8E
The protein stability index of the first is lower: 2.78 for the first, 3.4 for the second.

Going from T8H to T8G, the protein stability index rises from 2.78 to 2.9.

First: T8D
Second: T8N
The protein stability index of the first is higher: 3.52 for the first, 3.22 for the second.

Going from T8I to T8A, the protein stability index rises from 3.1 to 3.44.

Compared with H5I, H5N is higher in protein stability index: 2.11 for the first, 2.34 for the second.

Compared with H5S, H5A is lower in protein stability index: 3.2 for the first, 2.69 for the second.

Compared with H5T, H5E is higher in protein stability index: 2.24 for the first, 2.96 for the second.

Going from H5C to H5L, the protein stability index falls from 3.92 to 2.09.

Going from H5G to H5P, the protein stability index falls from 3 to 2.91.

First: H5K
Second: H5Q
The protein stability index of the first is lower: 2.98 for the first, 3.08 for the second.

Compared with H5W, H5F is higher in protein stability index: 2.31 for the first, 2.47 for the second.

Going from H5Y to H5R, the protein stability index rises from 2.39 to 2.74.

First: H5V
Second: H5M
The protein stability index of the first is lower: 2.27 for the first, 2.28 for the second.

H5D gave a protein stability index of 2.56.
